Assay [1] concerns the target human VEGFA-121-His (human) (UniProt P15692). Nature of the assay: KinExA equilibrium titration in solution, VEGFA-121. For orientation: A kinetic exclusion assay measures how much of one partner remains free in solution.
Assay [2] deals with human VEGFA-165 (human) (UniProt P15692). In words: KinExA, VEGFA-165; set-up for VEGFA-165 not described.
Assay [3] has as its target Pig VEGF-A-121 (pig) (UniProt P49151). Nature of the assay: SPR crossreactivity set-up, VEGF-A121-His captured by anti-His antibody, Fab injected, single cycle kinetics.

What is called Kd is the concentration at which binding is half-saturated. For orientation: koff means the rate constant with which the complex falls apart. A higher koff goes with fast dissociation. As a reminder, the kon is the rate constant with which the complex forms. High values mean faster complex formation, low ones slower complex formation.

Sequence of Pig VEGF-A-121 (pig) (P49151 other isoform, or with tags, fused parts or gaps limits assumed): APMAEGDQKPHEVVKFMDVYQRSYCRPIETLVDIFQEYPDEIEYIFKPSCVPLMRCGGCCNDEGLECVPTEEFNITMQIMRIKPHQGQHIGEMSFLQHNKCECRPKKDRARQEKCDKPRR
Sequence of human VEGFA-165 (human) (P15692 other isoform, or with tags, fused parts or gaps limits assumed): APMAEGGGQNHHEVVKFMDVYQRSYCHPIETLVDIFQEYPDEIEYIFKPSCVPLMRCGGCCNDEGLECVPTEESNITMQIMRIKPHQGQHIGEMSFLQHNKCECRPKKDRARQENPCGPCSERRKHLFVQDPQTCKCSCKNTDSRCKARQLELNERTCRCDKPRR
Sequence of human VEGFA-121-His (human) (P15692 other isoform, or with tags, fused parts or gaps): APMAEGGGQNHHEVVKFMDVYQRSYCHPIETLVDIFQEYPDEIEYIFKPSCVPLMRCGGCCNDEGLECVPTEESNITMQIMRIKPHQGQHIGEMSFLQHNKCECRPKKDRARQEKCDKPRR

B1: Brolucizumab-analogue (scFv, INN chains, looked up, V domains shown)
VH: EVQLVESGGGLVQPGGSLRLSCTASGFSLTDYYYMTWVRQAPGKGLEWVGFIDPDDDPYYATWAKGRFTISRDNSKNTLYLQMNSLRAEDTAVYYCAGGDHNSGWGLDIWGQGTLVTVSS
VL: EIVMTQSPSTLSASVGDRVIITCQASEIIHSWLAWYQQKPGKAPKLLIYLASTLASGVPSRFSGSGSGAEFTLTISSLQPDDFATYYCQNVYLASTNGANFGQGTKLTVL
modifications: scFv
In the case of B1, the Kd came out at 2 pM in assay [1] and 1 pM in assay [2].

B2: bispecific anti-VEGF-A/anti-ANG2 Fab fragment P1AD9820 (Fab, V domains shown)
VH: SEHLVESGGGLVKPGGSLRLSCATADFFEYDDMSWVRQAPGKGLEWVGSISPKGDHKYLNTKFIGRFTISRDDSKNTLYLQMNSLRAEDTAVYYCARDVGFFDWWGQGTLVTVSS
VL: AIYMHQEPSSLSASVGDRVTITCHGSYWLNSEVAWYQQKPGKAPKLLIFDGDFKVYEVPSRFSGSGSHEDYTLTISSLQPEDFATYYCQQYRYHPYTFGHGTKVEIKR
As for B2, in assay [3], the Kd stood at 2790 pM, the koff is 0.000499 s⁻¹, the kon came to 179000 M⁻¹ s⁻¹ and the t1/2 came to 23 min.

The values above are taken from patent US20220073599A1.
